Data reported in patent US20200385459A1 (University of Texas, published 2020).
Where a chain is given by its changes, count along the chain named. Several values for one entry are separate records, joined by “and”; a condition that tells them apart may be missing. Identical values can stand only once.

Experiments:
[1] = target: T1, His-tagged recombinant human LRP10 protein, LRP10-516H (human) (UniProt Q7Z4F1); assay: ELISA, coated LRP10, antibody at 250 ng/ml
T1 sequence (looked up): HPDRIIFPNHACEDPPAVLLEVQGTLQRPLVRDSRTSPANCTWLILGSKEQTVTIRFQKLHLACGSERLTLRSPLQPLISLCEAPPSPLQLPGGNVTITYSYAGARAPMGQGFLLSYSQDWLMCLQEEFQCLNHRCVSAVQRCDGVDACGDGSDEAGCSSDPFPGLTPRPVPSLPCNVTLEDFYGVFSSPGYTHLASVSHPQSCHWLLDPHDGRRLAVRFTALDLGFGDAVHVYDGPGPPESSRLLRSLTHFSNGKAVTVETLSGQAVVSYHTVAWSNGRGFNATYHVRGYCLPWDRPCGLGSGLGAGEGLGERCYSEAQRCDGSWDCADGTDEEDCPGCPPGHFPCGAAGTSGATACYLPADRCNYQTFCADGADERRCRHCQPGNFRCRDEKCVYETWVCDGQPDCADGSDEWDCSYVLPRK

[2] = target: T1, His-tagged recombinant human LRP10 protein, LRP10-516H (human); assay: ELISA, coated LRP10, antibody at 0.24 ng/ml
[3] = target: T1, His-tagged recombinant human LRP10 protein, LRP10-516H (human); assay: ELISA, coated LRP10, antibody at 0.98 ng/ml
[4] = target: T1, His-tagged recombinant human LRP10 protein, LRP10-516H (human); assay: ELISA, coated LRP10, antibody at 1000 ng/ml
[5] = target: T1, His-tagged recombinant human LRP10 protein, LRP10-516H (human); assay: ELISA, coated LRP10, antibody at 3.91 ng/ml
[6] = target: T1, His-tagged recombinant human LRP10 protein, LRP10-516H (human); assay: ELISA, coated LRP10, antibody at 62.5 ng/ml
[7] = target: T1, His-tagged recombinant human LRP10 protein, LRP10-516H (human); assay: ELISA, coated LRP10, antibody at 15.63 ng/ml
[8] = target: T1, His-tagged recombinant human LRP10 protein, LRP10-516H (human); assay: ELISA, coated LRP10, antibody at 0 ng/ml (background well)
[9] = target: T2, His-tagged recombinant human LRP10 protein, LRP10-516H (human, UniProt Q7Z4F1 17-440); assay: ELISA, coated LRP10, serial dilution of antibody
T2 construct: The ELISA protocol calls the coated protein 'LR10'; also called target protein LR10; target antigen; not shown: His tag
T2 sequence (looked up): T1 sequence (looked up)
Description: 1) Coat the target protein LR10 (1 μg/ml, 0.1 μg/well) in a certain coating buffer (0.1 M NaHCO₃, pH 9.6). Incubate overnight at 4° C. [0234] 2) Wash the wells 3 times with 300 μL washing buffer (0.1% PBST) per well. [0235] 3) Block the wells with 300 μL blocking buffer (3% BSA) for 1 h at 37° C. [0236] 4) Discard the blocking buffer and wash the plate 3 times with the washing buffer, slapping the plate face-down onto a clean section of paper towel each time. [0237] 5) Add 100 μL of a serial dilution of antibodies per well. Incubate at 37° C. for 1 h. [0238] 6) Wash 3 times with the washing buffer. Dilute HRP-goat anti-human IgG (1:4,000) in the blocking buffer (3% BSA). Add 100 μL of diluted conjugate per well and incubate at 37° C. for 1 h. […] 7) Wash 3 times with the washing buffer. Dissolve Tetramethylbenzidine (TMB) substrate (Sigma, USA) in […] citrate-phosphate buffer and add 1 μL/mL H₂O₂ to the solution. Add 100 μL of substrate solution per well and incubate at room temperature for 15 minutes. [0240] 8) Add 100 μL of 2 mol/L H₂SO₄ solution to stop the reaction. [0241] 9) Read plates using a microplate reader set at 490 nm.
For the 8 well-expressed antibodies, we tested their binding activities to the target antigen by ELISA (Table 7 and FIG. 11).

[10] = target: T3, mouse LRP10 (Lrp10) on C57BL/6 T cells (mouse (Mus musculus), UniProt Q7TQH7 18-713); assay: cell-based or functional assay
T3 sequence (looked up): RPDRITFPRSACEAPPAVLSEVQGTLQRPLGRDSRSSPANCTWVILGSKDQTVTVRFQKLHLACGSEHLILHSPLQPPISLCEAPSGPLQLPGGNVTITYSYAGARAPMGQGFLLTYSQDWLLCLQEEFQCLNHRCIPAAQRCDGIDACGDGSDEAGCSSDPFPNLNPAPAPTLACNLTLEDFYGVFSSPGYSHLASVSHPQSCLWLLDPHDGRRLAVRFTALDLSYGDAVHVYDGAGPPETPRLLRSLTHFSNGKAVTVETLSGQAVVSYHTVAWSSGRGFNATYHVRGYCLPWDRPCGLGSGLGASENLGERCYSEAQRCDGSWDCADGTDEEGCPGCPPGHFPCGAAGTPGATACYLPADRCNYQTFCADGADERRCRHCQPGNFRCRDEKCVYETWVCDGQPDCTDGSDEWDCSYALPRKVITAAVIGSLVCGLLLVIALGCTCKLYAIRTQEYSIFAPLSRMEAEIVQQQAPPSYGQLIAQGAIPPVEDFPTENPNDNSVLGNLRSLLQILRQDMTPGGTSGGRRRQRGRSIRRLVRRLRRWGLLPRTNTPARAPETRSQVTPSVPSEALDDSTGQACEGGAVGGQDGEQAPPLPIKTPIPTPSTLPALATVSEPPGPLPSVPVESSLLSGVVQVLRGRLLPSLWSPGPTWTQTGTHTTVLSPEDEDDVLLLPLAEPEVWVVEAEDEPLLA

[11] = target: T2, His-tagged recombinant human LRP10 …; assay: ELISA on coated LRP10

B1: Clone 6 (AB6) (antibody, human IgG1, V domains shown)
VH: EVQLLESGGGLVQPGGSLRLSCAASGFTFSSYAMSWVRQAPGKGLEWVSSIPSRGQATKYADSVKGRFTISRDNSKNTLYLQMNSLRAEDTAVYYCAKSRHTFDYWGQGTLVTVSS
VL: DIQMTQSPSSLSASVGDRVTITCRASQSISSYLNWYQQKPGKAPKLLIYDASLLQSGVPSRFSGSGSGTDFTLTISSLQPEDFATYYCQQTSAGPGTFGQGTKVEIK
[1]
  ELISA signal (plate read at 490 nm): 0.128 and 0.133
[2]
  ELISA signal (plate read at 490 nm): 0.0606 and 0.0573
[3]
  ELISA signal (plate read at 490 nm): 0.0588 and 0.0556
[4]
  ELISA signal (plate read at 490 nm): 0.289 and 0.349
[5]
  ELISA signal (plate read at 490 nm): 0.0615 and 0.0582
[6]
  ELISA signal (plate read at 490 nm): 0.09 and 0.0989
[7]
  ELISA signal (plate read at 490 nm): 0.0656 and 0.0659
[8]
  ELISA signal (plate read at 490 nm): 0.0595 and 0.0594

B2: Clone 1 (AB1) (antibody, V domains shown)
VH: B1 VH with Y32Q, S53P, R54G, Q56P, A57N, R100Y, H101P, T102S
VL: B1 VL with D50N, L53D, T91S, A93R, G94T, G96T
notes: also called AB1 (L1 + H1); AB1: L1 + H1
[9]
  EC50: 0.013 µg/mL

B3: Clone 7 (AB7) (antibody, human IgG1, V domains shown)
VH: B1 VH with P52A, S53T, R54T, Q56N, A57T, K59Y, S99N, R100T, H101A
VL: B1 VL with D50A, L53T, T91N, S92D, A93Y, G94Y, G96T
notes: Expressed as a full antibody in 293F cells, protein A purified; also called AB7 (L7 + H6); AB7: L7 + H6
[10]
  migration rate of T cells in response to SDF-1, transwell: ~2 fold higher than vehicle
[9]
  EC50: 0.0357 µg/mL

B4: Clone 3 (AB3) (antibody, human IgG1, V domains shown)
VH: B1 VH with S50Q, P52G, S53T, R54M, Q56R, A57P, K59T, R100G, H101K, T102K
VL: B1 VL with D50R, L53R, T91P, S92T, A93S, G94L, G96L
notes: Expressed as a full antibody in 293F cells, protein A purified; also called AB3 (L3 + H2); AB3: L3 + H2
[9]
  EC50: 0.0349 µg/mL

B5: Clone 9 (AB9) (antibody, human IgG1, V domains shown)
VH: B1 VH with P52Y, S53T, R54S, Q56A, K59T, R100Y, H101P, T102S
VL: B1 VL with D50N, L53D, T91S, A93R, G94T, G96T
notes: Expressed as a full antibody in 293F cells, protein A purified; also called AB9 (L1 + H8); AB9: L1 + H8
[11]
  binding result: no binding

B6: Clone 8 (AB8) (antibody, human IgG1, V domains shown)
VH: B1 VH with P14L, Y32Q, S53P, R54G, Q56P, A57N, R100Y, H101P, T102S
VL: B1 VL with D50N, L53D, T91S, A93R, G94T, G96T
notes: Expressed as a full antibody in 293F cells, protein A purified; also called AB8 (L1 + H7); AB (L1 + H7)
[10]
  migration rate of T cells in response to SDF-1, transwell: ~2 fold higher than vehicle
[9]
  EC50: 0.0117 µg/mL

B7: Clone 2 (AB2) (antibody, human IgG1, V domains shown)
VH: B1 VH with Y32Q, S53P, R54G, Q56P, A57N, R100Y, H101P, T102S
VL: B1 VL with D50A, L53P, T91V, S92A, A93R, G94T, G96N
notes: Expressed as a full antibody in 293F cells, protein A purified; also called AB2 (L2 + H1); AB2: L2 + H1
[10]
  migration rate of T cells in response to SDF-1, transwell: ~2 fold higher than vehicle
[9]
  EC50: 0.0148 µg/mL
